Measurements taken from patent US9402913B2, “Cyclosporine A steroid conjugates” (Allergan, Inc., priority 2013, dated 2016).

Tested on: human recombinant carboxylesterases
Test: In vitro metabolic stability in human recombinant carboxylesterases (rate of metabolite formation, LC-MS/MS)
Format: in vitro ADME
Conditions: 1 μM test compound, 0.1 mg/mL human recombinant carboxylesterase mixture, pH=6.0, 37° C., triplicate
Method: In Vitro Metabolic Stability in Human Recombinant Carboxylesterases
Human recombinant carboxylesterases were purchased from a commercial vendor (BD Gentest™, Bedford, Mass.). All metabolic stability experiments were performed in triplicate in 96-well plate format. The final incubation mixture contained 1 μM test compound and 0.1 mg/mL human recombinant carboxylesterase mixture in a final volume of 0.5 mL 0.1M potassium phosphate buffer (pH=6.0). […] Following a pre-incubation at 37° C., test article was added to initiate the reaction. At designated time points (typically 120 minutes to capture the linear range of metabolite formation), 0.05 mL aliquots were removed from the incubation mixtures using a clean pipet tip and immediately placed in organic solvent to stop any esterase activity.
The samples were analyzed by liquid chromatography with mass spectrometry (LC-MS/MS) detection to determine the metabolite concentrations resulting from the metabolism of the hybrid compounds. Internal standards were used to compensate for variability from sample processing, chromatographic elution, mass spectrometer response and ion suppression by matrix components.

## C/C=C/C[C@@H](C)[C@@H](OC(=O)OCOC(=O)CCC(=O)OCCOCCOCCOCCOC(=O)CCC(=O)OCC(=O)[C@@]1(O)[C@H](C)CC2C3CCC4=CC(=O)C=C[C@]4(C)[C@@]3(F)[C@@H](O)C[C@@]21C)C1C(=O)NC(CC)C(=O)N(C)CC(=O)N(C)[C@@H](CC(C)C)C(=O)NC(C(C)C)C(=O)N(C)C(CC(C)C)C(=O)NC(C)C(=O)NC(C)C(=O)N(C)C(CC(C)C)C(=O)N(C)C(CC(C)C)C(=O)N(C)C(C(C)C)C(=O)N1C (relative stereo) [Compound 20]
  Rate of formation Metabolite 2 (Cyclosporine A): 13.9 ± 1.11 nM/min/mg
  Rate of formation Metabolite 1 (Dexamethasone): 12.0 ± 0.88 nM/min/mg

## C/C=C/C[C@@H](C)[C@@H](OC(=O)OCOC(=O)CCC(=O)OCCOCCOC(=O)CCC(=O)OCC(=O)[C@@]1(O)CCC2C3CCC4=CC(=O)C=C[C@]4(C)C3[C@@H](O)C[C@@]21C)C1C(=O)NC(CC)C(=O)N(C)CC(=O)N(C)[C@@H](CC(C)C)C(=O)NC(C(C)C)C(=O)N(C)C(CC(C)C)C(=O)NC(C)C(=O)NC(C)C(=O)N(C)C(CC(C)C)C(=O)N(C)C(CC(C)C)C(=O)N(C)C(C(C)C)C(=O)N1C (relative stereo) [Compound 21]
  Rate of formation Metabolite 2 (Cyclosporine A): 21.6 ± 0.03 nM/min/mg

## C/C=C/C[C@@H](C)C(OC(=O)OCOC(=O)CCC(=O)OCCOCCOCCOC(=O)CCC(=O)OCC(=O)[C@@]1(O)CCC2C3CCC4=CC(=O)C=C[C@]4(C)C3[C@@H](O)C[C@@]21C)C1C(=O)NC(CC)C(=O)N(C)CC(=O)N(C)[C@@H](CC(C)C)C(=O)NC(C(C)C)C(=O)N(C)C(CC(C)C)C(=O)NC(C)C(=O)NC(C)C(=O)N(C)C(CC(C)C)C(=O)N(C)C(CC(C)C)C(=O)N(C)C(C(C)C)C(=O)N1C (relative stereo) [Compound 5]
  Rate of formation Metabolite 2 (Cyclosporine A): 35.6 ± 0.63 nM/min/mg
  Rate of formation Metabolite 1 (Prednisolone): 84.4 ± 7.52 nM/min/mg

## C/C=C/C[C@@H](C)[C@@H](OC(=O)OCOC(=O)CCC(=O)OCCOCCOCCOCCOCCOC(=O)CCC(=O)OCC(=O)[C@@]1(O)CCC2C3CCC4=CC(=O)C=C[C@]4(C)C3[C@@H](O)C[C@@]21C)C1C(=O)NC(CC)C(=O)N(C)CC(=O)N(C)[C@@H](CC(C)C)C(=O)NC(C(C)C)C(=O)N(C)C(CC(C)C)C(=O)NC(C)C(=O)NC(C)C(=O)N(C)C(CC(C)C)C(=O)N(C)C(CC(C)C)C(=O)N(C)C(C(C)C)C(=O)N1C (relative stereo) [Compound 22]
  Rate of formation Metabolite 2 (Cyclosporine A): 46.5 ± 3.16 nM/min/mg
  Rate of formation Metabolite 1 (Prednisolone): 38.4 ± 3.32 nM/min/mg

## C/C=C/C[C@@H](C)[C@@H](OC(=O)OCOC(=O)CCC(=O)OCCOCCOCCOCCOC(=O)CCC(=O)OCC(=O)[C@@]1(O)CCC2C3CCC4=CC(=O)C=C[C@]4(C)C3[C@@H](O)C[C@@]21C)C1C(=O)NC(CC)C(=O)N(C)CC(=O)N(C)[C@@H](CC(C)C)C(=O)NC(C(C)C)C(=O)N(C)C(CC(C)C)C(=O)NC(C)C(=O)NC(C)C(=O)N(C)C(CC(C)C)C(=O)N(C)C(CC(C)C)C(=O)N(C)C(C(C)C)C(=O)N1C (relative stereo) [Compound 6]
  Rate of formation Metabolite 2 (Cyclosporine A): 34.4 ± 3.85 nM/min/mg

## C/C=C/C[C@@H](C)C(OC(=O)CN(C)C(=O)CNC(=O)OCOC(=O)CCC(=O)OCC(=O)[C@@]1(O)CCC2C3CCC4=CC(=O)C=C[C@]4(C)C3[C@@H](O)C[C@@]21C)C1C(=O)NC(CC)C(=O)N(C)CC(=O)N(C)[C@@H](CC(C)C)C(=O)NC(C(C)C)C(=O)N(C)C(CC(C)C)C(=O)NC(C)C(=O)N[C@@H](C)C(=O)N(C)[C@@H](CC(C)C)C(=O)N(C)C(CC(C)C)C(=O)N(C)C(C(C)C)C(=O)N1C (relative stereo) [Compound 7]
  Rate of formation Metabolite 2 (Cyclosporine A): 1.31 ± 0.18 nM/min/mg
  Rate of formation Metabolite 1 (Prednisolone): 4.26 ± 1.31 nM/min/mg

## C/C=C/C[C@@H](C)[C@@H](OC(=O)OCOC(=O)CCC(=O)OCCOCCOCCOC(=O)CCC(=O)OCC(=O)[C@@]1(O)[C@H](C)CC2C3CCC4=CC(=O)C=C[C@]4(C)[C@@]3(F)[C@@H](O)C[C@@]21C)C1C(=O)NC(CC)C(=O)N(C)CC(=O)N(C)[C@@H](CC(C)C)C(=O)NC(C(C)C)C(=O)N(C)C(CC(C)C)C(=O)NC(C)C(=O)NC(C)C(=O)N(C)C(CC(C)C)C(=O)N(C)C(CC(C)C)C(=O)N(C)C(C(C)C)C(=O)N1C (relative stereo) [Compound 32]
  Rate of formation Metabolite 2 (Cyclosporine A): 13.4 ± 1.31 nM/min/mg
  Rate of formation Metabolite 1 (Dexamethasone): 20.4 ± 3.18 nM/min/mg
